In patent US7951356B1, “Tissue factor compositions and kits for coagulation and tumor treatment” (Board of Regents, The University of Texas System, priority 1997, dated 2011):

B1: H6—N′-cys-tTF219: tTF219 with (His)6 and a Cys in front of the N′-terminus; SEQ ID NO:2 (protein)
chain: HHHHHHAMALVPRGSCGTTNTVAAYNLTWKSTNFKTILEWEPKPVNQVYTVQISTKSGDWKSKCFYTTDTECDLTDEIVKDVKQTYLARVFSYPAGNVESTGSAGEPLYENSPEFTPYLETNLGQPTIQSFEQVGTKVNVTVEDERTLVRRNNTFLSLRDVFGKDLIYTLYYWKSSSSGKKTAKTNTNEFLIDVDKGENYCFSVQAVIPSRTVNRKSTDSPVECMGQEKGEFRE
B2: H6—N′ cys-tTF219 dimer: chemically conjugated dimer of SEQ ID NO:2 (protein)
chain: B1 chain
modifications: chemically conjugated dimer
B3: tTF220-cys-C′: tTF220-cys-C′, tested beside H6-tTF220-cys-C′ (FIG. 6) (protein)
chain: GSGTTNTVAAYNLTWKSTNFKTILEWEPKPVNQVYTVQISTKSGDWKSKCFYTTDTECDLTDEIVKDVKQTYLARVFSYPAGNVESTGSAGEPLYENSPEFTPYLETNLGQPTIQSFEQVGTKVNVTVEDERTLVRRNNTFLSLRDVFGKDLIYTLYYWKSSSSGKKTAKTNTNEFLIDVDKGENYCFSVQAVIPSRTVNRKSTDSPVECMGQEKGEFREIC
B4: “standard” tTF: “standard” tTF219 preparation obtained from Dr. Thomas Edgington (The Scripps Research Institute) (protein)
chain: GSGTTNTVAAYNLTWKSTNFKTILEWEPKPVNQVYTVQISTKSGDWKSKCFYTTDTECDLTDEIVKDVKQTYLARVFSYPAGNVESTGSAGEPLYENSPEFTPYLETNLGQPTIQSFEQVGTKVNVTVEDERTLVRRNNTFLSLRDVFGKDLIYTLYYWKSSSSGKKTAKTNTNEFLIDVDKGENYCFSVQAVIPSRTVNRKSTDSPVECMGQEKGEFRE
B5: H6-tTF221-cys-C′: tTF219 mutated to carry Ile-Phe-Cys after amino acid 219; SEQ ID NO:7 (protein)
chain: HHHHHHAMALVPRGSGTTNTVAAYNLTWKSTNFKTILEWEPKPVNQVYTVQISTKSGDWKSKCFYTTDTECDLTDEIVKDVKQTYLARVFSYPAGNVESTGSAGEPLYENSPEFTPYLETNLGQPTIQSFEQVGTKVNVTVEDERTLVRRNNTFLSLRDVFGKDLIYTLYYWKSSSSGKKTAKTNTNEFLIDVDKGENYCFSVQAVIPSRTVNRKSTDSPVECMGQEKGEFREIFC
B6: H6-tTF221-cys-C′ dimer: chemically conjugated dimer of SEQ ID NO:7 (protein)
chain: B5 chain
modifications: chemically conjugated dimer
B7: H6-tTF220-cys-C′: tTF219 mutated to carry Ile-Cys after amino acid 219; SEQ ID NO:6 (protein)
chain: HHHHHHAMALVPRGSGTTNTVAAYNLTWKSTNFKTILEWEPKPVNQVYTVQISTKSGDWKSKCFYTTDTECDLTDEIVKDVKQTYLARVFSYPAGNVESTGSAGEPLYENSPEFTPYLETNLGQPTIQSFEQVGTKVNVTVEDERTLVRRNNTFLSLRDVFGKDLIYTLYYWKSSSSGKKTAKTNTNEFLIDVDKGENYCFSVQAVIPSRTVNRKSTDSPVECMGQEKGEFREIC
B8: H6-tTF219-cys-C′: tTF219 with (His)6 and a Cys after amino acid 219; SEQ ID NO:3 (protein)
chain: HHHHHHAMALVPRGSGTTNTVAAYNLTWKSTNFKTILEWEPKPVNQVYTVQISTKSGDWKSKCFYTTDTECDLTDEIVKDVKQTYLARVFSYPAGNVESTGSAGEPLYENSPEFTPYLETNLGQPTIQSFEQVGTKVNVTVEDERTLVRRNNTFLSLRDVFGKDLIYTLYYWKSSSSGKKTAKTNTNEFLIDVDKGENYCFSVQAVIPSRTVNRKSTDSPVECMGQEKGEFREC
B9: tTF221-cys-C′: tTF221-cys-C′, tested beside H6-tTF221-cys-C′ (FIG. 7) (protein)
chain: GSGTTNTVAAYNLTWKSTNFKTILEWEPKPVNQVYTVQISTKSGDWKSKCFYTTDTECDLTDEIVKDVKQTYLARVFSYPAGNVESTGSAGEPLYENSPEFTPYLETNLGQPTIQSFEQVGTKVNVTVEDERTLVRRNNTFLSLRDVFGKDLIYTLYYWKSSSSGKKTAKTNTNEFLIDVDKGENYCFSVQAVIPSRTVNRKSTDSPVECMGQEKGEFREIFC

Tested on: citrated mouse plasma
Assay: In vitro coagulation assay: tTF constructs localized on A20 lymphoma cells via bispecific antibody B21-2/10H10
Assay type: cell-based
Settings: for coagulation-inducing activity once localized on A20 cells via B21-2/10H10, in words (compared with tTF219): plasma coagulation; for concentration applied to the cells at which plasma coagulated in 50 seconds: A20 cells coated with B21-2/10H10, FIG. 5-8, 15
Method: This assay was used to verify that tTF, various derivatives and mutants thereof, and immunoglobulin-tTF conjugates acquire coagulation inducing activity once localized at a cell surface. A20 lymphoma cells (I-A^d positive) (2×10^6 cells/ml, 50 μl) were incubated for 1 h at room temperature with a bispecific antibody (50 μg/ml, 25 μl) consisting of a Fab′ arm of the B21-2 antibody directed against I-A^d linked to a Fab′ arm of the 10H10 antibody directed against a non-inhibitory epitope on tTF. The cells were washed at room temperature and varying concentrations of tTF, derivatives or mutants thereof, or immunoglobulin-tTF conjugates were added for 1 hour at room temperature. The bispecific antibody captures the tTF or tTF linked to immunoglobulin, bringing it into close approximation to the cell surface, where coagulation can proceed.
The cells were washed again at room temperature, resuspended in 75 μl of PBS and warmed to 37° C. […] The time for the first fibrin strands to form was recorded. Clotting time was plotted against tTF concentration and curves compared with standard curves prepared using standard tTF219 preparations.

Row | Molecule | coagulation-inducing activity once localized on A20 cells via B21-2/10H10, in words (compared with tTF219) | concentration applied to the cells at which plasma coagulated in 50 seconds | concentration applied to the cells at which plasma coagulated in 50 seconds (listed as H6-tTF221-cys-C′ monomer) | fold less active than tTF219 at inducing coagulation of plasma (localized on A20 cells via B21-2/10H10)
1 | B1 | as active as tTF | – | – | –
2 | B2 | as active as tTF219 itself | – | – | –
3 | B3 | as active as tTF219 | 500 pM | – | –
4 | B4 | – | 3000 pM | – | –
5 | B5 | as active as tTF219 | 500 pM | 1000 pM | –
6 | B6 | – | 4000 pM | – | 4 fold
7 | B7 | as active as tTF219 | 500 pM | – | –
8 | B8 | as active as tTF | 3000 pM | – | –
9 | B9 | as active as tTF219 | 500 pM | – | –
